From patent US20250388640A1 (SYNTHEKINE, published 2025)
Where a chain is given by its changes, count along the chain named. Names may count otherwise.

B1: human IL12 mutein, hIL-12p40 E81A, F82D with hIL-12p35-8X His (ligand)
chain 1: IWELKKDVYVVELDWYPDAPGEMVVLTCDTPEEDGITWTLDQSSEVLGSGKTLTIQVKADGDAGQYTCHKGGEVLSHSLLLLHKKEDGIWSTDILKDQKEPKNKTFLRCEAKNYSGRFTCWWLTTISTDLTFSVKSSRGSSDPQGVTCGAATLSAERVRGDNKEYEYSVECQEDSACPAAEESLPIEVMVDAVHKLKYENYTSSFFIRDIIKPDPPKNLQLKPLKNSRQVEVSWEYPDTWSTPHSYFSLTFCVQVQGKSKREKKDRVFTDKTSATVICRKNASISVRAQDRYYSSSWSEWASVPCS
chain 2: RNLPVATPDPGMFPCLHHSQNLLRAVSNMLQKARQTLEFYPCTSEEIDHEDITKDKTSTVEACLPLELTKNESCLNSRETSFITNGSCLASRKTSFMMALCLSSIYEDLKMYQVEFKTMNAKLLMDPKRQIFLDQNMLAVIDELMQALNFNSETVPQKSSLEEPDFYKTKIKLCILLHAFRIRAVTIDRVMSYLNASGSHHHHHHHH
B2: human IL12 mutein, hIL-12p40 E81A, F82M with hIL-12p35-8X His (ligand)
chain 1: B1 chain 1 with D60M
chain 2: B1 chain 2
B3: human IL12 mutein, hIL-12p40 E81A, F82G with hIL-12p35-8X His (ligand)
chain 1: B1 chain 1 with D60G
chain 2: B1 chain 2
B4: human IL12 mutein, hIL-12p40 E81A, F82Q with hIL-12p35-8X His (ligand)
chain 1: B1 chain 1 with D60Q
chain 2: B1 chain 2
B5: human IL12 mutein, hIL-12p40 E81A, F82F with hIL-12p35-8X His (ligand)
chain 1: B1 chain 1 with D60F
chain 2: B1 chain 2

Legend:
[1] = molecular target: T1, hIL-12 receptor signaling complex (hIL-12Rβ1 and hIL-12Rβ2) (human, UniProt P42701 24-662; Q99665 24-862); assay: cell-based or functional assay
T1 sequence (Q99665 24-862, chain 2 of 2, other chains not shown): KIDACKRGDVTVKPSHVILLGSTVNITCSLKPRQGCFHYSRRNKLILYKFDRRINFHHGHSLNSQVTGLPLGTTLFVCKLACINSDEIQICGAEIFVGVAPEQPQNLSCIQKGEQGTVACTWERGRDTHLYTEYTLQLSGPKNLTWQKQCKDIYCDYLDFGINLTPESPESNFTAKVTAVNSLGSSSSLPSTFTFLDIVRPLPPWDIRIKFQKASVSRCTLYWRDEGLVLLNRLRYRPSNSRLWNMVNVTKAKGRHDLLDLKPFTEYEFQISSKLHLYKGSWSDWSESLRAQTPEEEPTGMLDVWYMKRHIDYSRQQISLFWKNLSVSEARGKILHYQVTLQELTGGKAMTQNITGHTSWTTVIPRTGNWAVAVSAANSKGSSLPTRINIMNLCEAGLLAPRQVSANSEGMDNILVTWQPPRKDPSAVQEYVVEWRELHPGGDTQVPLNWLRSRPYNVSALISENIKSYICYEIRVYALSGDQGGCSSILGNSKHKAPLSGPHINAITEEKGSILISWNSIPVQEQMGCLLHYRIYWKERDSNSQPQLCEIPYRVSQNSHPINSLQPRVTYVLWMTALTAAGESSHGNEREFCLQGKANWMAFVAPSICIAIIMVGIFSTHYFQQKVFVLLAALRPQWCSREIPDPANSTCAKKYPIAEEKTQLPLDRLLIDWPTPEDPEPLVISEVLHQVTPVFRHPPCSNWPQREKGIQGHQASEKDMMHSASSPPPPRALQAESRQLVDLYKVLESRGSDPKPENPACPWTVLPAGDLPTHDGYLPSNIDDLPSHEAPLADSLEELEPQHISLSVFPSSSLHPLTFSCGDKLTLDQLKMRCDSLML

[2] = molecular target: T1, hIL-12 receptor signaling complex …; assay: cell-based or functional assay; remark: listed apart in the source

Binder | pSTAT4 [gMFI] EC50, CD8+ T Cells [1] [nM] | pSTAT4 [gMFI] EC50, CD56hi NK Cells [1] [nM] | pSTAT4 [gMFI] Emax, CD8+ T Cells [1] [gMFI] | pSTAT4 [gMFI] Emax, CD56hi NK Cells [1] [gMFI] | pSTAT4 [%+] EC50, CD8+ T Cells [2] | pSTAT4 [%+] EC50, CD56hi NK Cells [2] [nM] | pSTAT4 [%+] Emax, CD8+ T Cells [2] [%+] | pSTAT4 [%+] Emax, CD56hi NK Cells [2] [%+]
B1 | 8.72 | 15.9 | 84000 | 23300 | 2.13 nM | 3.51 | 76.6 | 84.1
B2 | 2.64 | 4.26 | 109000 | 32200 | 0.52 nM | 0.74 | 82.2 | 88.1
B3 | 4.92 | 13.5 | 98200 | 30300 | 1 nM | 1.7 | 80.1 | 88
B4 | 4.92 | 9.87 | 91400 | 25900 | 1.08 nM | 2.05 | 78.5 | 85.1
B5 | 0.2 | 0.63 | 107000 | 36600 | 70 pM | 0.13 | 83.3 | 93.5
